Results: US20090208936, “IDENTIFICATION OF MOLECULAR INTERACTIONS AND THERAPEUTIC USES THEREOF” (Univeristy of Florida Research Foundations Inc., published 2009)

Assays:
alpha-thrombin [1] = target: T1, alpha-thrombin (Homo sapiens, UniProt P00734;P00734 P00734:328-363,P00734:364-622); experiment: FP; anisotropy increased more than 30% at 1:1; 20 mM Tris-HCl pH 7.6, 50 mM NaCl, 5% glycerol
antithrombin III (AT3) = antithrombin III (AT3) (Homo sapiens, UniProt P01008 P01008:33-464); experiment: FRET control without thrombin, no fluorescence change; settings: tags: Haematologic Technologies Inc; label: 5'-6-FAM, 3'-Dabcyl; G4
[2] = target: T2, sulfated hirudin fragment 54-65 (HirF) (UniProt P01050 P01050:54-65, not fully specified); experiment: as above; settings: tags: Sigma-Aldrich; peptide with sulfated Tyr; label: 5'-6-FAM, 3'-Dabcyl; G4
T2 chain: GDFEEIPEEYLQ

alpha-thrombin [3] = target: T1, alpha-thrombin; experiment: FRET quenching slightly larger than FQ-15Ap; Exosite II; not displaced by HirF or AHT
alpha-thrombin [4] = target: T1, alpha-thrombin; experiment: FP; anisotropy bait complex; slowly displaced by AT3

Chain of antithrombin III (AT3) (P01008 33-464, one chain of several): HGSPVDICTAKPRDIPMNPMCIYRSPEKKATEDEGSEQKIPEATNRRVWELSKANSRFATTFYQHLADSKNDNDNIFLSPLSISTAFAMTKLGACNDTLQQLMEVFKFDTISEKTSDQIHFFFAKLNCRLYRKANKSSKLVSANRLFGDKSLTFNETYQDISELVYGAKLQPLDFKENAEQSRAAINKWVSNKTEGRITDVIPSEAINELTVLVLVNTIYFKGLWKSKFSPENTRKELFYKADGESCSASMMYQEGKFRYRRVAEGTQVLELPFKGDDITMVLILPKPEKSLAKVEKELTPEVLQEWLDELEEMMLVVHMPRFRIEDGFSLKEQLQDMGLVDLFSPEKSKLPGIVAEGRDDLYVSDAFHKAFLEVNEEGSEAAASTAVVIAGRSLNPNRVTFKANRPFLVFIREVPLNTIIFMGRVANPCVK

GGTTGGTGTGGTTGG (ssDNA) [T-15Ap]: binds (alpha-thrombin [1]).

GGTTGGTGTGGTTGG (ssDNA) [FQ-15Ap]: no binding (antithrombin III (AT3)); no binding [2].

ACCCGTGGTAGGGTAGGATGGGGTGGT (ssDNA) [FQ-27Ap]: binds (alpha-thrombin [3]).

ACCCGTGGTAGGGTAGGATGGGGTGGT (ssDNA) [T-27Ap]: binds (alpha-thrombin [4]).
